# Measurements: US12679878B2, “CRF2 receptor agonists and their use in therapy” (SANOFI, priority 2020, dated 2026)
# Starred links: 1 amine or outer side, 2 acyl side, 3 side chain; linkers in the order of their positions; H or OH if unused. Non-standard residues stand in square brackets, D forms with d. Groups on a side chain read outwards from the residue. No end group written: not given here. *: point of attachment. C18 diacid = O=C(O)CCCCCCCCCCCCCCCCC(=O)*; γGlu = O=C(O)[C@H](CCC(=O)[*:2])N[*:1]; Palmitoyl = CCCCCCCCCCCCCCCC(=O)*; AEEA = NCCOCCOCC(=O)O; Aib = CC(C)(N)C(=O)O
# Biological target: human corticotropin-releasing factor 2α (CRF2 α receptor) (human), Q13324
# Assay: cell-based or functional assay
# Chain of human corticotropin-releasing factor 2α (CRF2 α receptor) (human), Q13324 (Q13324 20-411): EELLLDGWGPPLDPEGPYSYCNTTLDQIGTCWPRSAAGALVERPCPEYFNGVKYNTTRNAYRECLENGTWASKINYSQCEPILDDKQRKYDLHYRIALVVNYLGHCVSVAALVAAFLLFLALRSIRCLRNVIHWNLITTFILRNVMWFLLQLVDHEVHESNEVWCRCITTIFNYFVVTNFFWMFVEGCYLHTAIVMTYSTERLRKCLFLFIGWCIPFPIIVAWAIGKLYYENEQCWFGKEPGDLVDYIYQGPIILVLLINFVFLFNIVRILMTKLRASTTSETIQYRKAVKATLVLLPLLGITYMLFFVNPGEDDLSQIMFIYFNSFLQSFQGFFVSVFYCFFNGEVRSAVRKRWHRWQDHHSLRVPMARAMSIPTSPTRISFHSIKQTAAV
"EC50 [nM], 0% HSA","EC50 [nM], 0.1% HSA",Binder
0.2 nM,,FTLSLDVPTKIK([γGlu-Palmitoyl])QKLLKQEKQKKQRQKAKTAAQILAQV-NH2 (N-terminus assumed; SMILES CCCCCCCCCCCCCCCC(=O)N[C@@H](CCC(=O)NCCCC[C@H](NC(=O)[C@@H](NC(=O)[C@H](CCCCN)NC(=O)[C@@H](NC(=O)[C@@H]1CCCN1C(=O)[C@@H](NC(=O)[C@H](CC(=O)O)NC(=O)[C@H](CC(C)C)NC(=O)[C@H](CO)NC(=O)[C@H](CC(C)C)NC(=O)[C@@H](NC(=O)[C@@H](N)Cc1ccccc1)[C@@H](C)O)C(C)C)[C@@H](C)O)[C@@H](C)CC)C(=O)N[C@@H](CCC(N)=O)C(=O)N[C@@H](CCCCN)C(=O)N[C@@H](CC(C)C)C(=O)N[C@@H](CC(C)C)C(=O)N[C@@H](CCCCN)C(=O)N[C@@H](CCC(N)=O)C(=O)N[C@@H](CCC(=O)O)C(=O)N[C@@H](CCCCN)C(=O)N[C@@H](CCC(N)=O)C(=O)N[C@@H](CCCCN)C(=O)N[C@@H](CCCCN)C(=O)N[C@@H](CCC(N)=O)C(=O)N[C@@H](CCCNC(=N)N)C(=O)N[C@@H](CCC(N)=O)C(=O)N[C@@H](CCCCN)C(=O)N[C@@H](C)C(=O)N[C@@H](CCCCN)C(=O)N[C@H](C(=O)N[C@@H](C)C(=O)N[C@@H](C)C(=O)N[C@@H](CCC(N)=O)C(=O)N[C@H](C(=O)N[C@@H](CC(C)C)C(=O)N[C@@H](C)C(=O)N[C@@H](CCC(N)=O)C(=O)N[C@H](C(N)=O)C(C)C)[C@@H](C)CC)[C@@H](C)O)C(=O)O) [SEQ ID NO: 8]
2.77 nM,,IVLSLDVPIKLK([AEEA-AEEA-γGlu-C18 diacid])QILLKQERQK[Aib]QREQAEKNKQILERV-NH2 (N-terminus assumed; SMILES CC[C@H](C)[C@H](N)C(=O)N[C@H](C(=O)N[C@@H](CC(C)C)C(=O)N[C@@H](CO)C(=O)N[C@@H](CC(C)C)C(=O)N[C@@H](CC(=O)O)C(=O)N[C@H](C(=O)N1CCC[C@H]1C(=O)N[C@H](C(=O)N[C@@H](CCCCN)C(=O)N[C@@H](CC(C)C)C(=O)N[C@@H](CCCCNC(=O)COCCOCCNC(=O)COCCOCCNC(=O)CC[C@H](NC(=O)CCCCCCCCCCCCCCCCC(=O)O)C(=O)O)C(=O)N[C@@H](CCC(N)=O)C(=O)N[C@H](C(=O)N[C@@H](CC(C)C)C(=O)N[C@@H](CC(C)C)C(=O)N[C@@H](CCCCN)C(=O)N[C@@H](CCC(N)=O)C(=O)N[C@@H](CCC(=O)O)C(=O)N[C@@H](CCCNC(=N)N)C(=O)N[C@@H](CCC(N)=O)C(=O)N[C@@H](CCCCN)C(=O)NC(C)(C)C(=O)N[C@@H](CCC(N)=O)C(=O)N[C@@H](CCCNC(=N)N)C(=O)N[C@@H](CCC(=O)O)C(=O)N[C@@H](CCC(N)=O)C(=O)N[C@@H](C)C(=O)N[C@@H](CCC(=O)O)C(=O)N[C@@H](CCCCN)C(=O)N[C@@H](CC(N)=O)C(=O)N[C@@H](CCCCN)C(=O)N[C@@H](CCC(N)=O)C(=O)N[C@H](C(=O)N[C@@H](CC(C)C)C(=O)N[C@@H](CCC(=O)O)C(=O)N[C@@H](CCCNC(=N)N)C(=O)N[C@H](C(N)=O)C(C)C)[C@@H](C)CC)[C@@H](C)CC)[C@@H](C)CC)C(C)C)C(C)C) [SEQ ID NO: 115]
0.16 nM,12.4 nM,IVLSLDVPIKLK([AEEA-AEEA-γGlu-C18 diacid])QILLEQARQK[Aib]QRAQAETNKRILERV-NH2 [SEQ ID NO: 114]
0.66 nM,68.9 nM,IVLSLDVPIKLK([AEEA-AEEA-γGlu-C18 diacid])QILLKQERQKKQREKAETNKQILAQV-NH2 (N-terminus assumed; SMILES CC[C@H](C)[C@H](N)C(=O)N[C@H](C(=O)N[C@@H](CC(C)C)C(=O)N[C@@H](CO)C(=O)N[C@@H](CC(C)C)C(=O)N[C@@H](CC(=O)O)C(=O)N[C@H](C(=O)N1CCC[C@H]1C(=O)N[C@H](C(=O)N[C@@H](CCCCN)C(=O)N[C@@H](CC(C)C)C(=O)N[C@@H](CCCCNC(=O)COCCOCCNC(=O)COCCOCCNC(=O)CC[C@H](NC(=O)CCCCCCCCCCCCCCCCC(=O)O)C(=O)O)C(=O)N[C@@H](CCC(N)=O)C(=O)N[C@H](C(=O)N[C@@H](CC(C)C)C(=O)N[C@@H](CC(C)C)C(=O)N[C@@H](CCCCN)C(=O)N[C@@H](CCC(N)=O)C(=O)N[C@@H](CCC(=O)O)C(=O)N[C@@H](CCCNC(=N)N)C(=O)N[C@@H](CCC(N)=O)C(=O)N[C@@H](CCCCN)C(=O)N[C@@H](CCCCN)C(=O)N[C@@H](CCC(N)=O)C(=O)N[C@@H](CCCNC(=N)N)C(=O)N[C@@H](CCC(=O)O)C(=O)N[C@@H](CCCCN)C(=O)N[C@@H](C)C(=O)N[C@@H](CCC(=O)O)C(=O)N[C@H](C(=O)N[C@@H](CC(N)=O)C(=O)N[C@@H](CCCCN)C(=O)N[C@@H](CCC(N)=O)C(=O)N[C@H](C(=O)N[C@@H](CC(C)C)C(=O)N[C@@H](C)C(=O)N[C@@H](CCC(N)=O)C(=O)N[C@H](C(N)=O)C(C)C)[C@@H](C)CC)[C@@H](C)O)[C@@H](C)CC)[C@@H](C)CC)C(C)C)C(C)C) [SEQ ID NO: 112]
0.23 nM,,IVLSLDVPIKLK([AEEA-AEEA-γGlu-C18 diacid])QILLKQERQK[Aib]QRQKAETNKQILAQV-NH2 (N-terminus assumed; SMILES CC[C@H](C)[C@H](N)C(=O)N[C@H](C(=O)N[C@@H](CC(C)C)C(=O)N[C@@H](CO)C(=O)N[C@@H](CC(C)C)C(=O)N[C@@H](CC(=O)O)C(=O)N[C@H](C(=O)N1CCC[C@H]1C(=O)N[C@H](C(=O)N[C@@H](CCCCN)C(=O)N[C@@H](CC(C)C)C(=O)N[C@@H](CCCCNC(=O)COCCOCCNC(=O)COCCOCCNC(=O)CC[C@H](NC(=O)CCCCCCCCCCCCCCCCC(=O)O)C(=O)O)C(=O)N[C@@H](CCC(N)=O)C(=O)N[C@H](C(=O)N[C@@H](CC(C)C)C(=O)N[C@@H](CC(C)C)C(=O)N[C@@H](CCCCN)C(=O)N[C@@H](CCC(N)=O)C(=O)N[C@@H](CCC(=O)O)C(=O)N[C@@H](CCCNC(=N)N)C(=O)N[C@@H](CCC(N)=O)C(=O)N[C@@H](CCCCN)C(=O)NC(C)(C)C(=O)N[C@@H](CCC(N)=O)C(=O)N[C@@H](CCCNC(=N)N)C(=O)N[C@@H](CCC(N)=O)C(=O)N[C@@H](CCCCN)C(=O)N[C@@H](C)C(=O)N[C@@H](CCC(=O)O)C(=O)N[C@H](C(=O)N[C@@H](CC(N)=O)C(=O)N[C@@H](CCCCN)C(=O)N[C@@H](CCC(N)=O)C(=O)N[C@H](C(=O)N[C@@H](CC(C)C)C(=O)N[C@@H](C)C(=O)N[C@@H](CCC(N)=O)C(=O)N[C@H](C(N)=O)C(C)C)[C@@H](C)CC)[C@@H](C)O)[C@@H](C)CC)[C@@H](C)CC)C(C)C)C(C)C) [SEQ ID NO: 108]
0.1 nM,11.9 nM,IVLSLDVPIKLK([AEEA-AEEA-γGlu-C18 diacid])QILLKQERQKKQRQQAETNKQILAQV-NH2 [SEQ ID NO: 113]
0.95 nM,,IVLSLDVPIKLK([AEEA-AEEA-γGlu-C18 diacid])QILLKQERQK[Aib]QREKAETNKQILAQV-NH2 (N-terminus assumed; SMILES CC[C@H](C)[C@H](N)C(=O)N[C@H](C(=O)N[C@@H](CC(C)C)C(=O)N[C@@H](CO)C(=O)N[C@@H](CC(C)C)C(=O)N[C@@H](CC(=O)O)C(=O)N[C@H](C(=O)N1CCC[C@H]1C(=O)N[C@H](C(=O)N[C@@H](CCCCN)C(=O)N[C@@H](CC(C)C)C(=O)N[C@@H](CCCCNC(=O)COCCOCCNC(=O)COCCOCCNC(=O)CC[C@H](NC(=O)CCCCCCCCCCCCCCCCC(=O)O)C(=O)O)C(=O)N[C@@H](CCC(N)=O)C(=O)N[C@H](C(=O)N[C@@H](CC(C)C)C(=O)N[C@@H](CC(C)C)C(=O)N[C@@H](CCCCN)C(=O)N[C@@H](CCC(N)=O)C(=O)N[C@@H](CCC(=O)O)C(=O)N[C@@H](CCCNC(=N)N)C(=O)N[C@@H](CCC(N)=O)C(=O)N[C@@H](CCCCN)C(=O)NC(C)(C)C(=O)N[C@@H](CCC(N)=O)C(=O)N[C@@H](CCCNC(=N)N)C(=O)N[C@@H](CCC(=O)O)C(=O)N[C@@H](CCCCN)C(=O)N[C@@H](C)C(=O)N[C@@H](CCC(=O)O)C(=O)N[C@H](C(=O)N[C@@H](CC(N)=O)C(=O)N[C@@H](CCCCN)C(=O)N[C@@H](CCC(N)=O)C(=O)N[C@H](C(=O)N[C@@H](CC(C)C)C(=O)N[C@@H](C)C(=O)N[C@@H](CCC(N)=O)C(=O)N[C@H](C(N)=O)C(C)C)[C@@H](C)CC)[C@@H](C)O)[C@@H](C)CC)[C@@H](C)CC)C(C)C)C(C)C) [SEQ ID NO: 109]
0.18 nM,,IVLSLDVPIKLK([AEEA-AEEA-γGlu-C18 diacid])QILLKQERQK[Aib]QRQQAETNKQILAQV-NH2 (N-terminus assumed; SMILES CC[C@H](C)[C@H](N)C(=O)N[C@H](C(=O)N[C@@H](CC(C)C)C(=O)N[C@@H](CO)C(=O)N[C@@H](CC(C)C)C(=O)N[C@@H](CC(=O)O)C(=O)N[C@H](C(=O)N1CCC[C@H]1C(=O)N[C@H](C(=O)N[C@@H](CCCCN)C(=O)N[C@@H](CC(C)C)C(=O)N[C@@H](CCCCNC(=O)COCCOCCNC(=O)COCCOCCNC(=O)CC[C@H](NC(=O)CCCCCCCCCCCCCCCCC(=O)O)C(=O)O)C(=O)N[C@@H](CCC(N)=O)C(=O)N[C@H](C(=O)N[C@@H](CC(C)C)C(=O)N[C@@H](CC(C)C)C(=O)N[C@@H](CCCCN)C(=O)N[C@@H](CCC(N)=O)C(=O)N[C@@H](CCC(=O)O)C(=O)N[C@@H](CCCNC(=N)N)C(=O)N[C@@H](CCC(N)=O)C(=O)N[C@@H](CCCCN)C(=O)NC(C)(C)C(=O)N[C@@H](CCC(N)=O)C(=O)N[C@@H](CCCNC(=N)N)C(=O)N[C@@H](CCC(N)=O)C(=O)N[C@@H](CCC(N)=O)C(=O)N[C@@H](C)C(=O)N[C@@H](CCC(=O)O)C(=O)N[C@H](C(=O)N[C@@H](CC(N)=O)C(=O)N[C@@H](CCCCN)C(=O)N[C@@H](CCC(N)=O)C(=O)N[C@H](C(=O)N[C@@H](CC(C)C)C(=O)N[C@@H](C)C(=O)N[C@@H](CCC(N)=O)C(=O)N[C@H](C(N)=O)C(C)C)[C@@H](C)CC)[C@@H](C)O)[C@@H](C)CC)[C@@H](C)CC)C(C)C)C(C)C) [SEQ ID NO: 110]
